Each sequence was assayed on Saccharomyces cerevisiae (assay: protein stability index of tFT-peptide fusion in wild type (PSI (0-1 scale)); higher = more stable (slower turnover)). Conditions: genetic background: wild type.
Experimental: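 MPS profiling in S. cerevisiae of two library types built from selected 12-aa C-degron peptides (IN1, IN2, LN1, LN3, VN2, R1-R5, W1-W3, Atg1 and Rpa12 C-termini): saturation mutagenesis libraries and C-terminal +1 capping libraries (13 aa). Each peptide is fused to the C-terminus of a sfGFP-mCherry timer, after a GGGS linker. Cells are FACS-sorted into 8 mCherry/sfGFP bins and sequenced. PSI runs from 0 (unstable) to 1 (stable), measured once in wild type and in the das1Δ or doa10Δ background.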
With CTSCGYKFRTTN the protein stability index was 0.191.
With CTSCGYKFRTYN the protein stability index was 0.31.
CTSCGYKLRTNN gave a protein stability index of 0.471.
CTSCGYKQRTNN was tested, and the protein stability index was 0.538.
In the case of CTSCGYKRRTNN, the protein stability index is reported as 0.477.
Work on CTSDGYKFRTNN yielded a protein stability index of 0.517.
Sequence CTSLGYKFRTNN has a protein stability index of 0.17.
Sequence CTSRGYKFRTNN has a protein stability index of 0.215.
For CYSCGYKFRTNN, the protein stability index was 0.168.
In the case of DKHKKGQKQKIN, the protein stability index is reported as 0.113.
FMMRWTFRYWVN gave a protein stability index of 0.0399.
In the case of FQMRWTFRYWVN, the protein stability index is reported as 0.0681.
FRMRWTFRYWVN was tested, and the protein stability index was 0.0353.
FSKRWTFRYWVN was tested, and the protein stability index was 0.0512.
Work on FSMEWTFRYWVN yielded a protein stability index of 0.112.
For FSMRNTFRYWVN, the protein stability index was 0.0817.
With FSMRSTFRYWVN the protein stability index was 0.096.
In the case of FSMRWCFRYWVN, the protein stability index is reported as 0.0796.
With FSMRWEFRYWVN the protein stability index was 0.0711.
FSMRWNFRYWVN showed a protein stability index of 0.0584.
Sequence FSMRWTFDYWVN has a protein stability index of 0.618.
FSMRWTFHYWVN was tested, and the protein stability index was 0.048.
Work on FSMRWTFREWVN yielded a protein stability index of 0.0594.
With FSMRWTFRRWVN the protein stability index was 0.11.
In the case of FSMRWTFRWWVN, the protein stability index is reported as 0.0591.
For FSMRWTFRYLVN, the protein stability index was 0.0662.
With FSMRWTFRYWNN the protein stability index was 0.158.
FSMRWTFRYWVM gave a protein stability index of 0.136.
FSMRWTFRYWVNP was tested, and the protein stability index was 0.533.
Work on FSMRWTFRYWVR yielded a protein stability index of 0.416.
In the case of FSMRWTFWYWVN, the protein stability index is reported as 0.0405.
Sequence FSMRWTNRYWVN has a protein stability index of 0.0731.
Sequence FSMRWTRRYWVN has a protein stability index of 0.101.
In the case of FSMSWTFRYWVN, the protein stability index is reported as 0.0567.
GTSCGYKFRTNN showed a protein stability index of 0.261.
HSLAASFWRVVG was tested, and the protein stability index was 0.121.
Work on KKHKAGQKQKIN yielded a protein stability index of 0.0948.
With KKHKKGCKQKIN the protein stability index was 0.0767.
In the case of KKHKKGDKQKIN, the protein stability index is reported as 0.137.
KKHKKGLKQKIN showed a protein stability index of 0.0663.
KKHKKGQKPKIN showed a protein stability index of 0.574.
In the case of KKHKKGQKQKDN, the protein stability index is reported as 0.607.
For KKHKKGQKQKINL, the protein stability index was 0.652.
KKHKKGQKQKKN was tested, and the protein stability index was 0.577.
Sequence KKHKKGQKQKMN has a protein stability index of 0.0838.
In the case of KKHKKGQKQKNN, the protein stability index is reported as 0.476.
KKHKKGQKQSIN gave a protein stability index of 0.673.
KKHKKTQKQKIN gave a protein stability index of 0.0737.
For KKHKVGQKQKIN, the protein stability index was 0.0595.
For KKHPKGQKQKIN, the protein stability index was 0.14.
In the case of KKHSKGQKQKIN, the protein stability index is reported as 0.0645.
With KKILRQKMNHQN the protein stability index was 0.159.
KKPKKGQKQKIN gave a protein stability index of 0.174.
KKSKKGQKQKIN showed a protein stability index of 0.0679.
For KKTKKGQKQKIN, the protein stability index was 0.113.
KKVKKGQKQKIN gave a protein stability index of 0.122.
KPHKKGQKQKIN gave a protein stability index of 0.0908.
KQHKKGQKQKIN showed a protein stability index of 0.104.
In the case of KTHKKGQKQKIN, the protein stability index is reported as 0.0924.
Work on LCILRQKMNHQN yielded a protein stability index of 0.115.
LDILRQKMNHQN was tested, and the protein stability index was 0.121.
Work on LEILRQKMNHQN yielded a protein stability index of 0.161.
LFVYLSCVACIN was tested, and the protein stability index was 0.0334.
For LKCLRQKMNHQN, the protein stability index was 0.205.
LKELRQKMNHQN gave a protein stability index of 0.217.
Work on LKIGRQKMNHQN yielded a protein stability index of 0.414.
Work on LKILGQKMNHQN yielded a protein stability index of 0.365.
For LKILRHKMNHQN, the protein stability index was 0.194.
In the case of LKILRMKMNHQN, the protein stability index is reported as 0.243.
LKILRQKFNHQN showed a protein stability index of 0.202.
Sequence LKILRQKMDHQN has a protein stability index of 0.613.
Work on LKILRQKMFHQN yielded a protein stability index of 0.206.
LKILRQKMNHKN was tested, and the protein stability index was 0.484.
Work on LKILRQKMNHLN yielded a protein stability index of 0.192.
LKILRQKMNHMN gave a protein stability index of 0.191.
With LKILRQKMNHQD the protein stability index was 0.622.
With LKILRQKMNHQG the protein stability index was 0.215.
For LKILRQKMNHTN, the protein stability index was 0.197.
LKILRQKMQHQN gave a protein stability index of 0.238.
Sequence LKILRQKVNHQN has a protein stability index of 0.282.
LKILVQKMNHQN was tested, and the protein stability index was 0.218.
For LKIQRQKMNHQN, the protein stability index was 0.23.
Work on LKPLRQKMNHQN yielded a protein stability index of 0.172.
For LKVYLSCVACIN, the protein stability index was 0.0444.
In the case of LKYLRQKMNHQN, the protein stability index is reported as 0.17.
In the case of LRILRQKMNHQN, the protein stability index is reported as 0.148.
LVAYLSCVACIN was tested, and the protein stability index was 0.0244.
LVGYLSCVACIN showed a protein stability index of 0.0848.
Work on LVVKLSCVACIN yielded a protein stability index of 0.0127.
LVVPLSCVACIN was tested, and the protein stability index was 0.254.
LVVYLSCTACIN showed a protein stability index of 0.0192.
LVVYLSCVACCN gave a protein stability index of 0.0106.
LVVYLSCVACHN showed a protein stability index of 0.0435.
With LVVYLSCVACIG the protein stability index was 0.0178.
Sequence LVVYLSCVACINH has a protein stability index of 0.0236.
Sequence LVVYLSCVACINM has a protein stability index of 0.183.
LVVYLSCVACINV was tested, and the protein stability index was 0.02.
In the case of LVVYLSCVACMN, the protein stability index is reported as 0.0204.
Sequence LVVYLSCVACNN has a protein stability index of 0.127.
LVVYLSCVACSN showed a protein stability index of 0.0158.
For LVVYLSCVAYIN, the protein stability index was 0.0128.
LVVYLSCVDCIN was tested, and the protein stability index was 0.402.
In the case of LVVYLSCVECIN, the protein stability index is reported as 0.125.
Sequence LVVYLSCVFCIN has a protein stability index of 0.0477.
Work on LVVYLSCVICIN yielded a protein stability index of 0.0482.
LVVYLSHVACIN showed a protein stability index of 0.148.
For LVVYLSNVACIN, the protein stability index was 0.344.
LVVYLSRVACIN was tested, and the protein stability index was 0.087.
For LVVYRSCVACIN, the protein stability index was 0.133.
In the case of LWVYLSCVACIN, the protein stability index is reported as 0.0149.
Sequence LYILRQKMNHQN has a protein stability index of 0.135.
PDKKNHLIKLLN was tested, and the protein stability index was 0.09.
PDKRAHLIKLLN was tested, and the protein stability index was 0.112.
For PDKRNHKIKLLN, the protein stability index was 0.086.
In the case of PDKRNHLIALLN, the protein stability index is reported as 0.216.
For PDKRNHLIKELN, the protein stability index was 0.355.
PDKRNHLIKLIN gave a protein stability index of 0.115.

Source: the supplement of paper PMC10724198
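Also: PSI derived as read-weighted mean over the 8 sorting bins, only variants exceeding 10 total reads kept, mCherry placed adjacent to the peptide and sfGFP distal.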
